# From the MegaScale stability set (Tsuboyama et al. 2023)
# B1: EHEE_rd4_0726 (parent)
# chain: DIEITTNGEEDAKRVIKELQKRNLEYHIEVHGNQWVIKVR
# Variants of: B1
# Assay: folding stability dG (cDNA display proteolysis); higher = more stable
# Settings: PBS, room temperature
row,Variant,folding stability dG [kcal/mol]
1,DIEITTNGEENAKRVIKELQKRNLEYHIEVHGNQWVIKVR [D11N],2.28
2,DIEITTNGEELAKRVIKELQKRNLEYHIEVHGNQWVIKVR [D11L],2.12
3,DIEITTNGEEFAKRVIKELQKRNLEYHIEVHGNQWVIKVR [D11F],2.31
4,DIEITTNGEEGAKRVIKELQKRNLEYHIEVHGNQWVIKVR [D11G],1.92
5,DIEITTNGEEMAKRVIKELQKRNLEYHIEVHGNQWVIKVR [D11M],2.59
6,DIEITTNGEEHAKRVIKELQKRNLEYHIEVHGNQWVIKVR [D11H],2.52
7,DIEITTNGEEAAKRVIKELQKRNLEYHIEVHGNQWVIKVR [D11A],2.73
8,DIEITTNGEEEAKRVIKELQKRNLEYHIEVHGNQWVIKVR [D11E],2.95
9,DIEITTNGEEIAKRVIKELQKRNLEYHIEVHGNQWVIKVR [D11I],2.03
10,DIEITTNGEEKAKRVIKELQKRNLEYHIEVHGNQWVIKVR [D11K],1.78
11,DIEYTTNGEEDAKRVIKELQKRNLEYHIEVHGNQWVIKVR [I4Y],2.15
12,DIEVTTNGEEDAKRVIKELQKRNLEYHIEVHGNQWVIKVR [I4V],1.57
13,DIEWTTNGEEDAKRVIKELQKRNLEYHIEVHGNQWVIKVR [I4W],1.99
14,DIEITTNCEEDAKRVIKELQKRNLEYHIEVHGNQWVIKVR [G8C],2.33
15,DIEITTNFEEDAKRVIKELQKRNLEYHIEVHGNQWVIKVR [G8F],1.97
16,DIEITTNMEEDAKRVIKELQKRNLEYHIEVHGNQWVIKVR [G8M],1.69
17,DIEITTNAEEDAKRVIKELQKRNLEYHIEVHGNQWVIKVR [G8A],1.91
18,DIEITTNIEEDAKRVIKELQKRNLEYHIEVHGNQWVIKVR [G8I],1.95
19,DIEITTNPEEDAKRVIKELQKRNLEYHIEVHGNQWVIKVR [G8P],0.219
20,DIEITTNYEEDAKRVIKELQKRNLEYHIEVHGNQWVIKVR [G8Y],1.92
21,DIEITTNDEEDAKRVIKELQKRNLEYHIEVHGNQWVIKVR [G8D],2.64

row,Variant,folding stability dG [kcal/mol]
1,DIEITTNNEEDAKRVIKELQKRNLEYHIEVHGNQWVIKVR [G8N],3.23
2,DIEITTNKEEDAKRVIKELQKRNLEYHIEVHGNQWVIKVR [G8K],2.02
3,DIEITTNREEDAKRVIKELQKRNLEYHIEVHGNQWVIKVR [G8R],2.33
4,DIEITTNTEEDAKRVIKELQKRNLEYHIEVHGNQWVIKVR [G8T],3.07
5,DIEITTNHEEDAKRVIKELQKRNLEYHIEVHGNQWVIKVR [G8H],2.1
6,DIEITTNSEEDAKRVIKELQKRNLEYHIEVHGNQWVIKVR [G8S],3.27
7,DIEITTNEEEDAKRVIKELQKRNLEYHIEVHGNQWVIKVR [G8E],1.77
8,DIEITTNLEEDAKRVIKELQKRNLEYHIEVHGNQWVIKVR [G8L],1.83
9,DIEITTNWEEDAKRVIKELQKRNLEYHIEVHGNQWVIKVR [G8W],1.75
10,DIEITTNVEEDAKRVIKELQKRNLEYHIEVHGNQWVIKVR [G8V],1.92
11,DIEITTNQEEDAKRVIKELQKRNLEYHIEVHGNQWVIKVR [G8Q],1.84
12,DIEITSNGEEDAKRVIKELQKRNLEYHIEVHGNQWVIKVR [T6S],1.47
13,DIEITHNGEEDAKRVIKELQKRNLEYHIEVHGNQWVIKVR [T6H],0.768
14,DIEITENGEEDAKRVIKELQKRNLEYHIEVHGNQWVIKVR [T6E],0.908
15,DIEITFNGEEDAKRVIKELQKRNLEYHIEVHGNQWVIKVR [T6F],2.32
16,DIEITPNGEEDAKRVIKELQKRNLEYHIEVHGNQWVIKVR [T6P],1.51
17,DIEITLNGEEDAKRVIKELQKRNLEYHIEVHGNQWVIKVR [T6L],2.84
18,DIEITVNGEEDAKRVIKELQKRNLEYHIEVHGNQWVIKVR [T6V],3.55
19,DIEITRNGEEDAKRVIKELQKRNLEYHIEVHGNQWVIKVR [T6R],1.53
20,DIEITKNGEEDAKRVIKELQKRNLEYHIEVHGNQWVIKVR [T6K],1.22
21,DIEITQNGEEDAKRVIKELQKRNLEYHIEVHGNQWVIKVR [T6Q],0.841

row,Variant,folding stability dG [kcal/mol]
1,DIEITGNGEEDAKRVIKELQKRNLEYHIEVHGNQWVIKVR [T6G],2.65
2,DIEITANGEEDAKRVIKELQKRNLEYHIEVHGNQWVIKVR [T6A],2.62
3,DIEITMNGEEDAKRVIKELQKRNLEYHIEVHGNQWVIKVR [T6M],2.38
4,DIEITDNGEEDAKRVIKELQKRNLEYHIEVHGNQWVIKVR [T6D],0.026
5,DIEITINGEEDAKRVIKELQKRNLEYHIEVHGNQWVIKVR [T6I],3.08
6,DIEITWNGEEDAKRVIKELQKRNLEYHIEVHGNQWVIKVR [T6W],1.04
7,DIEITYNGEEDAKRVIKELQKRNLEYHIEVHGNQWVIKVR [T6Y],1.59
8,DIEITNNGEEDAKRVIKELQKRNLEYHIEVHGNQWVIKVR [T6N],0.494
9,DIEITTNGEWDAKRVIKELQKRNLEYHIEVHGNQWVIKVR [E10W],2.21
10,DIEITTNGEIDAKRVIKELQKRNLEYHIEVHGNQWVIKVR [E10I],2.01
11,DIEITTNGECDAKRVIKELQKRNLEYHIEVHGNQWVIKVR [E10C],2.43
12,DIEITTNGETDAKRVIKELQKRNLEYHIEVHGNQWVIKVR [E10T],1.93
13,DIEITTNGEQDAKRVIKELQKRNLEYHIEVHGNQWVIKVR [E10Q],2.16
14,DIEITTNGERDAKRVIKELQKRNLEYHIEVHGNQWVIKVR [E10R],2.18
15,DIEITTNGESDAKRVIKELQKRNLEYHIEVHGNQWVIKVR [E10S],1.95
16,DIEITTNGEDDAKRVIKELQKRNLEYHIEVHGNQWVIKVR [E10D],2.25
17,DIEITTNGEPDAKRVIKELQKRNLEYHIEVHGNQWVIKVR [E10P],1.52
18,DIEITTNGEGDAKRVIKELQKRNLEYHIEVHGNQWVIKVR [E10G],1.77
19,DIEITTNGELDAKRVIKELQKRNLEYHIEVHGNQWVIKVR [E10L],2.15
20,DIEITTNGEADAKRVIKELQKRNLEYHIEVHGNQWVIKVR [E10A],2.4
